Experimental findings from paper PMC6123711, “Conformational signatures in β-arrestin2 reveal natural biased agonism at a G-protein-coupled receptor” (Communications Biology, 2018) are described below.

In assay [1] the test system is human β-arrestin2 (Galr2-stimulated). In words: Intramolecular FlasH BRET at β-arrestin2 conformational biosensors. In kind it is cell-based. As to conditions: HEK293 cells, 10 μM agonist. The text has this:
To investigate the effects of GPCR activation on the dynamics of β-arrestin2 conformation, we developed a series of FlasH BRET conformational biosensors[31],[32] by inserting the six-amino-acid motif, CCPGCC, immediately after the amino acid residue 140 (FlasH1), 263 (FlasH2), and 410 (FlasH3), respectively, into the human β-arrestin2 (Fig. 7a, b). Due to its characteristics (e.g., small size, stable, and bright and sustained luminescence)[33], we covalently linked the Nluc to the N terminus of β-arrestin2 during probe design. Each probe (Nluc–β-arrestin2–FlasH1, 2, and 3) was designed to measure BRET between Nluc and a fluorescein arsenical acceptor located at one of three positions along β-arrestin2. We hypothesized that observing changes in BRET efficiency from multiple sites would produce a β-arrestin2 conformational hallmark characteristic for each ligand[31]. We used a structural complementation assay based on NanoBit technology to test whether the insertion of the FlasH motif would have an effect on β-arrestin2 recruitment. All three ligands were able to recruit these β-arrestin2–FlasH constructs to induce luminescence signals, although some signals were lower than that of wild-type β-arrestin2 (Fig. 7c). […]
Intramolecular BRET at β-arrestin2 conformational biosensors was measured based on the steps and procedures previously described. […]
(Bioluminescence resonance energy transfer reports proximity on the nanometre scale.)

Assay [2] concerns the target T1, Galr2–β-arrestin2 complex (Homo sapiens, UniProt O43603).
T1 construct: expressed in transfected cells; host or cells: HEK293 cells, transient transfection with Lipofectamine 2000; b62 only says 'the cells'
Nature of the assay: Reversal assay for dissociation kinetics. The assay is classed as cell-based.
Description: The decay of the luminescent signal may reflect dissociation rate of ligand from Galr2 as the β-arrestin2 response returns to basal levels in washout experiments.
Ligand removal was performed by simply changing the medium containing no ligand and then immediately continue measuring luminescence. Samples with no ligand removal were used as a control. […] The results are expressed as the mean ± s.e.m. values of two independent experiments
One day before transfection, the cells were seeded in 96-well plates at a density of 2.5 × 10^4 cells per well. […] At 24 h post transfection, the medium was aspirated and replaced with 100 μl OPTIMEM and incubated at room temperature. After a 10-min incubation, 25 μl substrate (furimazine) was added, and once every minute subsequent luminescence measurements were taken for 10 min for signal stabilization. A total of 10 μl ligand was then added to each well and luminescence measurements were recorded immediately and once every minute during 10 min for signal stabilization. After that time wells allocated for ligand removal, ligand containing medium was replaced for medium containing only furimazine substrate and no ligand. Immediately continued recording the time course luminescence values once every minute during 1 h.

T1 sequence (O43603 whole entry): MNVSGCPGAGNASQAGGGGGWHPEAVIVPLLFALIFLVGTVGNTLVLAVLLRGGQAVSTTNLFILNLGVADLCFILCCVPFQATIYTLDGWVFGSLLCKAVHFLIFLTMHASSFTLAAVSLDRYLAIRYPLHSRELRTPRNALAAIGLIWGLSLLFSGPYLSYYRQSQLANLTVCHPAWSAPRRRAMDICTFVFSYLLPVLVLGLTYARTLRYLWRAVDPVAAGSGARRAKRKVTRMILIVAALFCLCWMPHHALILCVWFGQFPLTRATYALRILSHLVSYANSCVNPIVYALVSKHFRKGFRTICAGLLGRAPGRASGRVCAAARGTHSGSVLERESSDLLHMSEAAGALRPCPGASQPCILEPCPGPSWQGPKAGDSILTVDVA
T1 sequence (P32121 whole entry partner): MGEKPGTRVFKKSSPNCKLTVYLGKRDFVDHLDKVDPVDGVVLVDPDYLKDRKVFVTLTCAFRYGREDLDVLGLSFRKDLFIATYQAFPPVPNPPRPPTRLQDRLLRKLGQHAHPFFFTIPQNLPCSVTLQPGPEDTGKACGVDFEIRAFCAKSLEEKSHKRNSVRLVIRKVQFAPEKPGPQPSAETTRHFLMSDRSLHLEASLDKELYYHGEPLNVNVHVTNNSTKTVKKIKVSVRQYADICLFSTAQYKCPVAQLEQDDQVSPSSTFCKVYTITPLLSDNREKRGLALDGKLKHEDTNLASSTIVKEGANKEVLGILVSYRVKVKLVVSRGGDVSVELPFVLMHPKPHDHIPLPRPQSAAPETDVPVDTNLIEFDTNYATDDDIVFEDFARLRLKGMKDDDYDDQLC

B1: Spexin (peptide, UniProt Q9BT56 27-116, looked up)
Spexin: APQRLLERRNWTPQAMLYLKGAQGRRFISDQSRRKDLSDRPLPERRSPNPQLLTIPEAATILLASLQKSPEDEEKNFDQTRFLEDSLLNW
modifications: Spexin
notes: endogenous peptide ligand of Galr2 and Galr3; synthesized by AnyGen
As for B1, in assay [1] (2 min, n = 3, each probe), the “ΔNet BRET in Nluc–β-arrestin2–FlasH1-3 versus Galanin” value is listed as “significantly different from those observed in Galanin”. Besides, the “ΔNet BRET similarity between Spexin and Fmoc-dA4-dQ14” value in assay [1] (FlasH1-3 biosensors) is “very similar between Spexin and Fmoc-dA4-dQ14 except for the FlasH3 conformational biosensor”. Moreover, the “decrease in luminescence signal after ligand removal” value in assay [2] (10 μM agonist, medium change, two independent experiments) is “rapid decrease in luminescence signal back to basal levels”. For the same molecule, the “half-life (t1/2) of Galr2–β-arrestin2 complex luminescence decay after ligand removal” value in assay [2] (HEK293 cells, 10 μM agonist, washout, indirect measure of ligand dissociation, mean ± s.e.m. of two independent experiments) is 3.35 ± 0.7 min. Moreover, the “residence time relative to Galanin” value in assay [2] (reversal dissociation assay) is given as “significantly shorter than Galanin”.
